In patent US20090004198A1 (published 2009) one finds Kd data, which are given here for 1 molecule.

In this test the target is T1, GST-HCMV-AD1 fusion protein (human cytomegalovirus (HCMV), UniProt P06473 552-635).
T1 construct: also called GST fused HCMV-AD1; not shown: GST (glutathione S-transferase) fusion partner
Put plainly: BIAcore (SPR); antigen fixed to the sensor chip, antibody as analyte; GST protein as control.

T1 sequence (P06473 552-635 limits assumed): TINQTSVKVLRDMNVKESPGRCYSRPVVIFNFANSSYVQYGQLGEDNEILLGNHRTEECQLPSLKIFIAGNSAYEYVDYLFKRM

B1: anti-HCMV antibody (G3D No. 9) (antibody, human IgG1, kappa, V domains shown)
VH: QVQLVESGGGMVQPGKSLRLSCAASGFTFSSYGMHWVRQAPGRGLEWVAIIWYDGDNTWYADSVKGRITISRDNSKNMLYLQMDSLRVEDTALYYCVRGGLGYFNGWDVDHWGQGTLVTVSS
VL: DVVMTQSPLSLPVTLGQPASISCRSSESLVYSDGNTYLNWFQQRPGQSPRRLISKVSNRDSGVPDRFSGSGSGTDFTLKISRVEAEDVGVYYCMQGSHWPPYTFGQGTKLEIKR
notes: also called G3D No. 9 antibody; anti-HCMV monoclonal antibody
For the molecule B1, binding was characterised by a dissociation constant (Kd) of 0.0116 nM.

For orientation: Kd means a measure of binding affinity in units of concentration. A low value points to higher affinity.
